Results as given in US20190185898A1.

Target: core-fucosylated RNase B (21) (bovine) (UniProt P61823)
Experiment: ELISA, glycoprotein coated, AAL-biotin in serial dilution

Sequence of core-fucosylated RNase B (21) (bovine) (P61823 27-150): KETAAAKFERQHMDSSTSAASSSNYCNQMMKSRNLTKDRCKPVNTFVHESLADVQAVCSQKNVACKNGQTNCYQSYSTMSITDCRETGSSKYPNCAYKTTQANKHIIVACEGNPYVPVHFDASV

B1: Aleuria aurantia lectin (AAL) (protein, UniProt P18891 2-313, looked up)
chain: PTEFLYTSKIAAISWAATGGRQQRVYFQDLNGKIREAQRGGDNPWTGGSSQNVIGEAKLFSPLAAVTWKSAQGIQIRVYCVNKDNILSEFVYDGSKWITGQLGSVGVKVGSNSKLAALQWGGSESAPPNIRVYYQKSNGSGSSIHEYVWSGKWTAGASFGSTVPGTGIGATAIGPGRLRIYYQATDNKIREHCWDSNSWYVGGFSASASAGVSIAAISWGSTPNIRVYWQKGREELYEAAYGGSWNTPGQIKDASRPTPSLPDTFIAANSSGNIDISVFFQASGVSLQQWQWISGKGWSIGAVVPTGTPAGW
modifications: biotin label (AAL-biotin), site not stated
EC50: 275 µM
